Consider five sequences from the supplement of paper PMC11246515.

The data set can be described thus: total protein half-life in vivo (active degradation + dilution); higher = more stable protein.
The mark [1] stands for this setting: E. coli NCM3722 delta-clpP delta-lon delta-hslV, growth: N-lim chemostat, doubling time 6 h.
Setting [2] is: E. coli NCM3722 delta-clpP, growth: N-lim chemostat, doubling time 6 h.
Setting [3] is: E. coli NCM3722 delta-hslV, growth: N-lim chemostat, doubling time 6 h.
Where [4] appears, read: E. coli NCM3722 delta-lon, growth: N-lim chemostat, doubling time 6 h.
The mark [5] stands for this setting: E. coli NCM3722 delta-smpB, growth: N-lim chemostat, doubling time 6 h.
The mark [6] stands for this setting: wild type E. coli NCM3722, growth: C-lim chemostat, doubling time 3 h.
The mark [7] stands for this setting: wild type E. coli NCM3722, growth: C-lim chemostat, doubling time 6 h.
[8] abbreviates: wild type E. coli NCM3722, growth: C-lim chemostat, doubling time 12 h.
Where [9] appears, read: wild type E. coli NCM3722, growth: N-lim chemostat, doubling time 6 h.
The mark [10] stands for this setting: wild type E. coli NCM3722, growth: N-lim chemostat, doubling time 12 h.
[11] abbreviates: wild type E. coli NCM3722, growth: P-lim chemostat, doubling time 6 h.
The mark [12] stands for this setting: wild type E. coli NCM3722, growth: P-lim chemostat, doubling time 12 h.

± gives the standard deviation of the averaged measurements.

Take “MIKKASLLTACSVTAFSAWAQDTSPDTLVVTANRFEQPRSTVLAPTTVVTRQDIDRWQSTSVNDVLRRLPGVDITQNGGSGQLSSIFIRGTNASHVLVLIDGVRLNLAGVSGSADLSQFPIALVQRVEYIRGPRSAVYGSDAIGGVVNIITTRDEPGTEISAGWGSNSYQNYDVSTQQQLGDKTRVTLLGDYAHTHGYDVVAYGNTGTQAQTDNDGFLSKTLYGALEHNFTDAWSGFVRGYGYDNRTNYDAYYSPGSPLLDTRKLYSQSWDAGLRYNGELIKSQLITSYSHSKDYNYDPHYGRYDSSATLDEMKQYTVQWANNVIVGHGSIGAGVDWQKQTTTPGTGYVEDGYDQRNTGIYLTGLQQVGDFTFEGAARSDDNSQFGRHGTWQTSAGWEFIEGYRFIASYGTSYKAPNLGQLYGFYGNPNLDPEKSKQWEGAFEGLTAGVNWRISGYRNDVSDLIDYDDHTLKYYNEGKARIKGVEATANFDTGPLTHTVSYDYVDARNAITDTPLLRRAKQQVKYQLDWQLYDFDWGITYQYLGTRYDKDYSSYPYQTVKMGGVSLWDLAVAYPVTSHLTVRGKIANLFDKDYETVYGYQTAGREYTLSGSYTF”: the “total protein half-life in vivo” value reads like this: under setting [1], 6.44 ± 0.73 h; under setting [2], 6.76 ± 0.089 h; under setting [3], 6.84 ± 0.059 h; under setting [4], 6.49 ± 0.47 h; under setting [5], 6.07 ± 0.27 h; under setting [6], 3.26 ± 0.15 h. In addition, the “total protein half-life in vivo” value was 6.12 ± 0.2 h under setting [7]; 12.3 ± 0.2 h under setting [8]; 6.29 ± 0.28 h under setting [9]; 13.5 ± 1.7 h under setting [10]; 6.23 ± 0.18 h under setting [11]; 12.8 ± 0.14 h under setting [12].

On to “MFNSDNLRLDGKCAIITGAGAGIGKEIAITFATAGASVVVSDINADAANHVVDEIQQLGGQAFACRCDITSEQELSALADFAISKLGKVDILVNNAGGGGPKPFDMPMADFRRAYELNVFSFFHLSQLVAPEMEKNGGGVILTITSMAAENKNINMTSYASSKAAASHLVRNMAFDLGEKNIRVNGIAPGAILTDALKSVITPEIEQKMLQHTPIRRLGQPQDIANAALFLCSPAASWVSGQILTVSGGGVQELN [P0AET8]”, for which the “total protein half-life in vivo” value is 4.91 ± 0.11 h under setting [1]; 4.39 ± 0.73 h under setting [2]; 4.72 ± 0.18 h under setting [3]; 5.48 ± 0.66 h under setting [4]; 4.27 ± 0.21 h under setting [5]; 3.53 ± 0.6 h under setting [6]. The “total protein half-life in vivo” value under setting [7] amounted to 5.51 ± 1.1 h; the “total protein half-life in vivo” value under setting [8] came out at 10.2 ± 1.2 h; the “total protein half-life in vivo” value under setting [9] was determined as 4.57 ± 0.14 h; the “total protein half-life in vivo” value under setting [10] worked out at 7.309 ± 0.022 h; the “total protein half-life in vivo” value under setting [11] came to 5.64 ± 0.42 h; the “total protein half-life in vivo” value under setting [12] is 11.8 ± 0.3 h.

Take “MKLYNLKDHNEQVSFAQAVTQGLGKNQGLFFPHDLPEFSLTEIDEMLKLDFVTRSAKILSAFIGDEIPQEILEERVRAAFAFPAPVANVESDVGCLELFHGPTLAFKDFGGRFMAQMLTHIAGDKPVTILTATSGDTGAAVAHAFYGLPNVKVVILYPRGKISPLQEKLFCTLGGNIETVAIDGDFDACQALVKQAFDDEELKVALGLNSANSINISRLLAQICYYFEAVAQLPQETRNQLVVSVPSGNFGDLTAGLLAKSLGLPVKRFIAATNVNDTVPRFLHDGQWSPKATQATLSNAMDVSQPNNWPRVEELFRRKIWQLKELGYAAVDDETTQQTMRELKELGYTSEPHAAVAYRALRDQLNPGEYGLFLGTAHPAKFKESVEAILGETLDLPKELAERADLPLLSHNLPADFAALRKLMMNHQ”: the “total protein half-life in vivo” value is, setting by setting: under setting [1], 5.07 ± 0.61 h; under setting [2], 4.78 ± 0.058 h; under setting [3], 5.09 ± 0.18 h; under setting [4], 5.28 ± 0.25 h; under setting [5], 4.57 ± 0.11 h; under setting [6], 3.25 ± 0.27 h. Also, the “total protein half-life in vivo” value under setting [7] came out at 6.01 ± 0.15 h; the “total protein half-life in vivo” value under setting [8] was found to be 11.9 ± 0.91 h; the “total protein half-life in vivo” value under setting [9] came out at 4.989 ± 0.048 h; the “total protein half-life in vivo” value under setting [10] was determined as 8.57 ± 0.57 h; the “total protein half-life in vivo” value under setting [11] was 5.76 ± 0.32 h; the “total protein half-life in vivo” value under setting [12] turned out to be 11.9 ± 0.51 h.

Take “MLDNVLRIATRQSPLALWQAHYVKDKLMASHPGLVVELVPMVTRGDVILDTPLAKVGGKGLFVKELEVALLENRADIAVHSMKDVPVEFPQGLGLVTICEREDPRDAFVSNNYDSLDALPAGSIVGTSSLRRQCQLAERRPDLIIRSLRGNVGTRLSKLDNGEYDAIILAVAGLKRLGLESRIRAALPPEISLPAVGQGAVGIECRLDDSRTRELLAALNHHETALRVTAERAMNTRLEGGCQVPIGSYAELIDGEIWLRALVGAPDGSQIIRGERRGAPQDAEQMGISLAEELLNNGAREILAEVYNGDAPA”: the “total protein half-life in vivo” value under setting [1] was determined as 3.85 ± 1.1 h; the “total protein half-life in vivo” value under setting [2] came out at 4.24 ± 0.11 h; the “total protein half-life in vivo” value under setting [3] was 4.0338 ± 0.0026 h; the “total protein half-life in vivo” value under setting [4] was determined as 4.87 ± 0.84 h; the “total protein half-life in vivo” value under setting [5] amounted to 4.04 ± 0.045 h; the “total protein half-life in vivo” value under setting [6] was found to be 2.81 ± 0.084 h. The “total protein half-life in vivo” value by setting is: under setting [7], 5.48 ± 0.92 h; under setting [9], 4.12 ± 0.23 h; under setting [10], 7.009 ± 0.051 h; under setting [11], 5.475 ± 0.013 h; under setting [12], 11.4 ± 0.85 h.

As to “MTHLELVPVPPVAQLAGVSQHYGKTVALNNITLDIPARCMVGLIGPDGVGKSSLLSLISGARVIEQGNVMVLGGDMRDPKHRRDVCPRIAWMPQGLGKNLYHTLSVYENVDFFARLFGHDKAEREVRINELLTSTGLAPFRDRPAGKLSGGMKQKLGLCCALIHDPELLILDEPTTGVDPLSRSQFWDLIDSIRQRQSNMSVLVATAYMEEAERFDWLVAMNAGEVLATGSAEELRQQTQSATLEEAFINLLPQAQRQAHQAVVIPPYQPENAEIAIEARDLTMRFGSFVAVDHVNFRIPRGEIFGFLGSNGCGKSTTMKMLTGLLPASEGEAWLFGQPVDPKDIDTRRRVGYMSQAFSLYNELTVRQNLELHARLFHIPEAEIPARVAEMSERFKLNDVEDILPESLPLGIRQRLSLAVAVIHRPEMLILDEPTSGVDPVARDMFWQLMVDLSRQDKVTIFISTHFMNEAERCDRISLMHAGKVLASGTPQELVEKRGAASLEEAFIAYLQEAAGQSNEAEAPPVVHDTTHAPRQGFSLRRLFSYSRREALELRRDPVRSTLALMGTVILMLIMGYGISMDVENLRFAVLDRDQTVSSQAWTLNLSGSRYFIEQPPLTSYDELDRRMRAGDITVAIEIPPNFGRDIARGTPVELGVWIDGAMPSRAETVKGYVQAMHQSWLQDVASRQSTPASQSGLMNIETRYRYNPDVKSLPAIVPAVIPLLLMMIPSMLSALSVVREKELGSIINLYVTPTTRSEFLLGKQLPYIALGMLNFFLLCGLSVFVFGVPHKGSFLTLTLAALLYIIIATGMGLLISTFMKSQIAAIFGTAIITLIPATQFSGMIDPVASLEGPGRWIGEVYPTSHFLTIARGTFSKALDLTDLWQLFIPLLIAIPLVMGLSILLLKKQEG”, the “total protein half-life in vivo” value is, setting by setting: under setting [1], 6.26 ± 0.63 h; under setting [2], 5.83 ± 0.27 h; under setting [3], 5.89 ± 0.12 h; under setting [4], 6.1709 ± 0.0027 h; under setting [5], 5.63 ± 0.1 h; under setting [6], 3.42 ± 0.3 h. For the same sequence, the “total protein half-life in vivo” value came to 5.34 h under setting [7]; 13.5 ± 0.33 h under setting [8]; 5.19 ± 0.17 h under setting [9]; 11.8 ± 0.13 h under setting [10]; 6.42 ± 0.41 h under setting [11]; 13 ± 1.4 h under setting [12].
